IntAct's records for PubMed 24275654

What was measured:
tbb4a_human TUBB4A = tbb4a_human TUBB4A (UniProt P04350)
tbb6_human TUBB6 = tbb6_human TUBB6 (UniProt Q9BUF5)
tbb5_human TUBB = tbb5_human TUBB (UniProt P07437)
UniProt P07437, sequence (P07437 whole entry): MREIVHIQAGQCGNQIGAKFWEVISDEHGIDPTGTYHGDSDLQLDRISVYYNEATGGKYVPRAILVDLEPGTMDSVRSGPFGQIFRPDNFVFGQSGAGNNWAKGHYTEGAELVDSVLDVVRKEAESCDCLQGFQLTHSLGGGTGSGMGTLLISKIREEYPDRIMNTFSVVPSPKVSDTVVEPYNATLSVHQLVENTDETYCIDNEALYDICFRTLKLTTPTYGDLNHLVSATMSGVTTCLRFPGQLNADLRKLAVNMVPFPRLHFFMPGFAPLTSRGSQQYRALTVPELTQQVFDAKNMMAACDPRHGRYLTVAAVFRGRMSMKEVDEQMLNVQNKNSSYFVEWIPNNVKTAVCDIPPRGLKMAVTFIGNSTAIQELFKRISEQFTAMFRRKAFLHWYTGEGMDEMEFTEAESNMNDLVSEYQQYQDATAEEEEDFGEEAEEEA

UniProt P04350, sequence (P04350 whole entry): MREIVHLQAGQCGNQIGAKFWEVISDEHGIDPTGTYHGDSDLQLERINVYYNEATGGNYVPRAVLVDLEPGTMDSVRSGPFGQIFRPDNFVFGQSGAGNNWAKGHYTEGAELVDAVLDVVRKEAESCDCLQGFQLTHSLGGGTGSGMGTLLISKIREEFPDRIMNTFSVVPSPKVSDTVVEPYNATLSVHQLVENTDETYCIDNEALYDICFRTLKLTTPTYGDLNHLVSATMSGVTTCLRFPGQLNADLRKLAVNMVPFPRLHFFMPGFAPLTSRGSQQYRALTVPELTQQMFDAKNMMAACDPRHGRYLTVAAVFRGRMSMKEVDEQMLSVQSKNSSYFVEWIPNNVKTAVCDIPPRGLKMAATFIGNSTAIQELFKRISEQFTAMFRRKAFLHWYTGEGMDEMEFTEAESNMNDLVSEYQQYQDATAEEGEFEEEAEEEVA
UniProt Q9BUF5, sequence (Q9BUF5 whole entry): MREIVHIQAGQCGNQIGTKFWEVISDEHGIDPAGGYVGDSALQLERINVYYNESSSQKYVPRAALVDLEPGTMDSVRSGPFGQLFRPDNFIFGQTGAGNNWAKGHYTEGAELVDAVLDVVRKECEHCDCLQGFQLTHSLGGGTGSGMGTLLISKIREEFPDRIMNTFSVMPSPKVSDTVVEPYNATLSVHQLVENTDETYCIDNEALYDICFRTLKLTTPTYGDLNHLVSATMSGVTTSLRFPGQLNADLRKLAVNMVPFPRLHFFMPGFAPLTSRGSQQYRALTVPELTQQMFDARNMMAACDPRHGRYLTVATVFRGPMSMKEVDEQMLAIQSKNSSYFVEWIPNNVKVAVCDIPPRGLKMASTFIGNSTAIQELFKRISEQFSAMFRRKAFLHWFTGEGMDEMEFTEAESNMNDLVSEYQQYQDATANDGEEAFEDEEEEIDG

Row | effect of a mutation on the interaction (tbb4a_human TUBB4A) | effect of a mutation on the interaction (tbb6_human TUBB6) | effect of a mutation on the interaction (tbb5_human TUBB) | Substance
1 | disrupting interaction | disrupting interaction | disrupting interaction | Leucine-rich repeat serine/threonine-protein kinase 2 (Homo sapiens), Q5S007 K1347A
2 | increasing interaction | – | increasing interaction | Leucine-rich repeat serine/threonine-protein kinase 2 (Homo sapiens), Q5S007 R1441C
3 | decreasing interaction | – | decreasing interaction | Leucine-rich repeat serine/threonine-protein kinase 2 (Homo sapiens), Q5S007 T1343D
4 | decreasing interaction | – | – | Leucine-rich repeat serine/threonine-protein kinase 2 (Homo sapiens), Q5S007 T1491D
5 | decreasing interaction | – | decreasing interaction | Leucine-rich repeat serine/threonine-protein kinase 2 (Homo sapiens), Q5S007 R1441G
6 | increasing interaction | – | – | Leucine-rich repeat serine/threonine-protein kinase 2 (Homo sapiens), Q5S007 T1343A
7 | decreasing interaction | – | decreasing interaction | Leucine-rich repeat serine/threonine-protein kinase 2 (Homo sapiens), Q5S007 R1441H
8 | increasing interaction | – | – | Leucine-rich repeat serine/threonine-protein kinase 2 (Homo sapiens), Q5S007 T1491A
